This is an account of results in the supplement of paper PMC5998384.

Data set [1] concerns HeLa Kyoto. As to the kind of experiment: solubility in G1/S (NP-40 vs SDS abundance) (log2 ratio); higher = more soluble. The conditions noted are these: cell cycle stage: G1/S.
Data set [2] deals with HeLa Kyoto. As to the kind of experiment: solubility change mitosis vs G1/S (difference of NP-40 vs SDS log2 ratios) (log2 ratio difference); higher = more soluble in mitosis.
In data set [3] the test system is HeLa Kyoto. Briefly: thermal stability score vs G1/S (z-score of summed log2 fold changes over temperatures); higher = more thermally stable than in G1/S.
The subject of data set [4] is HeLa Kyoto. Briefly: melting temperature (median over replicates), in situ; higher = more thermally stable.
The mark [5] stands for this setting: cell cycle stage: early G1 (4.5 h after nocodazole release).
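Wherever melting temperature (median over replicates), in situ is given: HeLa Kyoto cells synchronized by double thymidine or nocodazole block, proteins quantified by TMT10plex mass spectrometry, three independent biological replicates.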
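Wherever solubility change mitosis vs G1/S (difference of NP-40 vs SDS log2 ratios) is given: synchronized HeLa Kyoto cells (double thymidine block for G1/S, nocodazole release for mitosis), protein amounts in NP-40 versus SDS lysates quantified by mass spectrometry, three biological replicates.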
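Wherever solubility in G1/S (NP-40 vs SDS abundance) is given: HeLa Kyoto cells arrested at G1/S by double thymidine block, proteins quantified by TMT10plex mass spectrometry in mild NP-40 versus SDS extracts, three biological replicates.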
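Wherever thermal stability score vs G1/S (z-score of summed log2 fold changes over temperatures) is given: synchronized HeLa Kyoto cells, proteins quantified by TMT10plex mass spectrometry, three biological replicates, mitosis taken 0.5 h after nocodazole release, G1/S directly after double thymidine block.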

For the sequence “MMIHGFQSSHRDFCFGPWKLTASKTHIMKSADVEKLADELHMPSLPEMMFGDNVLRIQHGSGFGIEFNATDALRCVNNYQGMLKVACAEEWQESRTEGEHSKEVIKPYDWTYTTDYKGTLLGESLKLKVVPTTDHIDTEKLKAREQIKFFEEVLLFEDELHDHGVSSLSVKIRVMPSSFFLLLRFFLRIDGVLIRMNDTRLYHEADKTYMLREYTSRESKISSLMHVPPSLFTEPNEISQYLPIKEAVCEKLIFPERIDPNPADSQKSTQVE [TIPRL]”, in data set [1], the “solubility in G1/S (log2)” value was found to be 0.0228. In data set [2], the “solubility change mitosis (log2)” value is -0.0696. Besides, the results for the thermal stability score in data set [3] (setting [5]) and in data set [3] (cell cycle stage: mitosis) were -0.544 and -1.01, respectively. Also, the figures for the melting temperature in data set [4] (cell cycle stage: G1/S) and in data set [4] (cell cycle stage: mitosis) were 50.8 °C and 51.3 °C, respectively.

“MQDDSIEASTSISQLLRESYLAETRHRGNNERSRAEPSSNPCHFGSPSGAAEGGGGQDDLPDLSAFLSQEELDESVNLARLAINYDPLEKADETQARKRLSPDQMKHSPNLSFEPNFCQDNPRSPTSSKESPQEAKRPQYCSETQSKKVFLNKAADFIEELSSLFKSHSSKRIRPRACKNHKSKLESQNKVMQENSSSFSDLSERRERSSVPIPIPADTRDNEVNHALEQQEAKRREAEQAASEAAGGDTTPGSSPSSLYYEEPLGQPPRFTQKLRSREVPEGTRVQLDCIVVGIPPPQVRWYCEGKELENSPDIHIVQAGNLHSLTIAEAFEEDTGRYSCFASNIYGTDSTSAEIYIEGVSSSDSEGDPNKEEMNRIQKPNEVSSPPTTSAVIPPAVPQAQHLVAQPRVATIQQCQSPTNYLQGLDGKPIIAAPVFTKMLQNLSASEGQLVVFECRVKGAPSPKVEWYREGTLIEDSPDFRILQKKPRSMAEPEEICTLVIAEVFAEDSGCFTCTASNKYGTVSSIAQLHVRGNEDLSNNGSLHSANSTTNLAAIEPQPSPPHSEPPSVEQPPKPKLEGVLVNHNEPRSSSRIGLRVHFNLPEDDKGSEASSEAGVVTTRQTRPDSFQERFNGQATKTPEPSSPVKEPPPVLAKPKLDSTQLQQLHNQVLLEQHQLQNPPPSSPKEFPFSMTVLNSNAPPAVTTSSKQVKAPSSQTFSLARPKYFFPSTNTTAATVAPSSSPVFTLSSTPQTIQRTVSKESLLVSHPSVQTKSPGGLSIQNEPLPPGPTEPTPPPFTFSIPSGNQFQPRCVSPIPVSPTSRIQNPVAFLSSVLPSLPAIPPTNAMGLPRSAPSMPSQGLAKKNTKSPQPVNDDNIRETKNAVIRDLGKKITFSDVRPNQQEYKISSFEQRLMNEIEFRLERTPVDESDDEIQHDEIPTGKCIAPIFDKRLKHFRVTEGSPVTFTCKIVGIPVPKVYWFKDGKQISKRNEHCKMRREGDGTCSLHIESTTSDDDGNYTIMAANPQGRISCSGHLMVQSLPIRSRLTSAGQSHRGRSRVQERDKEPLQERFFRPHFLQAPGDMVAHEGRLCRLDCKVSGLPPPELTWLLNGQPVLPDASHKMLVRETGVHSLLIDPLTQRDAGTYKCIATNKTGQNSFSLELSVVAKEVKKAPVILEKLQNCGVPEGHPVRLECRVIGMPPPVFYWKKDNETIPCTRERISMHQDTTGYACLLIQPAKKSDAGWYTLSAKNEAGIVSCTARLDIYAQWHHQIPPPMSVRPSGSRYGSLTSKGLDIFSAFSSMESTMVYSCSSRSVVESDEL [MYPN]”: in data set [1], the “solubility in G1/S (log2)” value was found to be 0.0329. In addition, the “solubility change mitosis (log2)” value in data set [2] is -0.108. Moreover, the thermal stability score is -0.0918 in data set [3] (setting [5]) and 3.44 in data set [3] (cell cycle stage: mitosis). The melting temperature in data set [4] (cell cycle stage: G1/S) worked out at 47.6 °C; in data set [4] (cell cycle stage: mitosis), 48.9 °C.

On to “MAAAAKPNNLSLVVHGPGDLRLENYPIPEPGPNEVLLRMHSVGICGSDVHYWEYGRIGNFIVKKPMVLGHEASGTVEKVGSSVKHLKPGDRVAIEPGAPRENDEFCKMGRYNLSPSIFFCATPPDDGNLCRFYKHNAAFCYKLPDNVTFEEGALIEPLSVGIHACRRGGVTLGHKVLVCGAGPIGMVTLLVAKAMGAAQVVVTDLSATRLSKAKEIGADLVLQISKESPQEIARKVEGQLGCKPEVTIECTGAEASIQAGIYATRSGGNLVLVGLGSEMTTVPLLHAAIREVDIKGVFRYCNTWPVAISMLASKSVNVKPLVTHRFPLEKALEAFETFKKGLGLKIMLKCDPSDQNP [SORD]”, for which the “solubility in G1/S (log2)” value in data set [1] amounted to 0.184. For the same sequence, in data set [2], the “solubility change mitosis (log2)” value was -0.109. For the same sequence, the thermal stability score in data set [3] (setting [5]) is -2.25; in data set [3] (cell cycle stage: mitosis), -1.12. In addition, the values for the melting temperature in data set [4] (cell cycle stage: G1/S) and in data set [4] (cell cycle stage: mitosis) were 58.1 °C and 57 °C, respectively.

For “MSAPFEERSGVVPCGTPWGQWYQTLEEVFIEVQVPPGTRAQDIQCGLQSRHVALSVGGREILKGKLFDSTIADEGTWTLEDRKMVRIVLTKTKRDAANCWTSLLESEYAADPWVQDQMQRKLTLERFQKENPGFDFSGAEISGNYTKGGPDFSNLEK [NUDCD2]”, in data set [1], the “solubility in G1/S (log2)” value was 0.372. Also, in data set [2], the “solubility change mitosis (log2)” value came out at 0.035. Besides, the thermal stability score came to 1.01 in data set [3] (setting [5]) and 2.41 in data set [3] (cell cycle stage: mitosis). For the same sequence, the melting temperature in data set [4] (cell cycle stage: G1/S) came out at 47.7 °C; in data set [4] (cell cycle stage: mitosis), 49.5 °C.
